Experimental data taken from patent publication US8614103B2, “Compositions and methods for treating sphingosine-1-phosphate (S1P) related ocular diseases and conditions” (Lpath, Inc., priority 2006, dated 2013).

Experiments:
[1] = test system: fibroblasts (Swiss 3T3, cardiac fibroblasts, WI-38); assay: S1P-stimulated fibroblast proliferation, migration, collagen expression, myofibroblast differentiation; assay type: cell-based; settings: 1 μg/mL antibody; 0.1-1 μM S1P
Protocol: See Example 7, below, for experimental details. […] In these experiments, fibroblasts were serum-starved and then treated with 0, 0.1, 0.5, or 1 μM S1P+/−1 μg/mL SPHINGOMAB for 12-24 hr. […] SPHINGOMAB neutralized each of these S1P effects. SPHINGOMAB reduced perivascular fibrosis in vivo in a murine model of a permanent myocardial infarction (E).
S1P makes profound contributions to wound healing by activating fibroblast migration, proliferation and collagen production; SPHINGOMAB neutralizes these effects. Several studies using multiple types of fibroblasts confirm S1P's ability to promote wound healing: 1) S1P increased Swiss-3T3 fibroblast proliferation as measured by ^3H-thymidine incorporation using standard methods (FIG. 7A); 2) S1P promoted the migration of cardiac fibroblasts in a standard scratch wound healing assay. […] In each of these assays, SPHINGOMAB neutralized S1P's. It is anticipated that ocular fibroblasts would respond similarly to S1P and SPHINGOMAB.

[2] = test system: macrophage and mast cell infiltration; assay: Murine infarct model, immune cell infiltration; assay type: in vivo, mouse; settings: 25 mg/kg; four days post-MI
Protocol: SPHINGOMAB reduced immune-cell wound infiltration in vivo. Mice were subjected to MI, treated with saline or 25 mg/kg SPHINGOMAB 48 hr. after surgery and then sacrificed on day 4. SPHINGOMAB reduced macrophage (A) and mast cell (B) infiltration into the wound. Data are represented as fold decrease of saline-treated values.
Based upon the similarities of immune and inflammatory responses in CNV and CVD, the efficacy of SPHINGOMAB to mitigate immune cell infiltration into a wound was evaluated in a murine infarct model as an indication of SPHINGOMAB's potential effects in mitigating these damages during AMD [Vine, et al. (2005), Opthalmology, vol 112: 2076-80; and Seddon and Chen (2004), Int Opthalmol Clin, vol 44: 17-39]. Four days post-MI, macrophage and mast cell infiltration was evaluated using MAC-1 and MCG35 antibodies, respectively, within the area at risk.

B1: LT1002: murine monoclonal antibody to S1P, IgG1 kappa, hybridoma clone 306D326.26 (antibody, listed as Mus sp., V domains shown)
VH: QAHLQQSDAELVKPGASVKISCKVSGFIFIDHTIHWMKQRPEQGLEWIGCISPRHDITKYNEMFRGKATLTADKSSTTAYIQVNSLTFEDSAVYFCARGGFYGSTIWFDFWGQGTTLTVS
VL: ETTVTQSPASLSMAIGEKVTIRCITTTDIDDDMNWFQQKPGEPPNLLISEGNILRPGVPSRFSSSGYGTDFLFTIENMLSEDVADYYCLQSDNLPFTFGSGTKLEIK
- effect on S1P-stimulated fibroblast proliferation, migration, collagen expression, myofibroblast differentiation [1]: neutralized
- density of inflammatory macrophages [2]: dramatically attenuated
- density of mast cells [2]: dramatically attenuated
